According to patent publication US20180071366A1:
Numbered stars: 1 amine (or outer) side, 2 acyl side, 3 side chain; on linkers, the order of the positions; unused ones are H or OH. Bridge positions count the residues as written; N and C are the ends. Square brackets hold non-standard residues; d marks the D form. * marks the point of attachment. C20 diacid = O=C(O)CCCCCCCCCCCCCCCCCCC(=O)*; γGlu = O=C(O)[C@H](CCC(=O)[*:2])N[*:1]; Hyp = O=C(O)[C@@H]1C[C@@H](O)CN1; NMeI = CC[C@H](C)[C@H](NC)C(=O)O; Aad = N[C@@H](CCCC(=O)O)C(=O)O; Orn = NCCC[C@H](N)C(=O)O; Dab = NCC[C@H](N)C(=O)O; Dap = NC[C@H](N)C(=O)O; Sar = CNCC(=O)O

Experiments:
[1] = target: recombinant human amylin 3 receptor (hAMYR3) (human), P30988; test: cell-based or functional assay
[2] = target: recombinant human calcitonin receptor (hCT-R) (human), P30988; test: cell-based or functional assay
recombinant human calcitonin receptor (hCT-R) (human), P30988, sequence (P30988 25-474): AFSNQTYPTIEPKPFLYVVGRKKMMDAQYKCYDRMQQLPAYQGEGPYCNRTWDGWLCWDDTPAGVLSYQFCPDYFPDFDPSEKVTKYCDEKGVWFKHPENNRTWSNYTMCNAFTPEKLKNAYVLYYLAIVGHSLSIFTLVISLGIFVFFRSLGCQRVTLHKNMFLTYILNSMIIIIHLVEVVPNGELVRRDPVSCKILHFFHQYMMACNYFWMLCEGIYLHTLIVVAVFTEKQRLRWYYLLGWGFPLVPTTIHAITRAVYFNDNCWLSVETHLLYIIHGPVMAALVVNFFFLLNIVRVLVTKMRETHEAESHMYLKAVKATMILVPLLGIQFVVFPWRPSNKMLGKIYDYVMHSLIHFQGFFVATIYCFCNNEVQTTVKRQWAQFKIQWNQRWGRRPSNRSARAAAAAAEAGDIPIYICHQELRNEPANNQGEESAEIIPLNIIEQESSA

recombinant human amylin 3 receptor (hAMYR3) (human), P30988, sequence (P30988 25-474, chain 1 of 2): as the sequence (P30988 25-474) above
recombinant human amylin 3 receptor (hAMYR3) (human), P30988, sequence (O60896 24-148, chain 2 of 2, further chain): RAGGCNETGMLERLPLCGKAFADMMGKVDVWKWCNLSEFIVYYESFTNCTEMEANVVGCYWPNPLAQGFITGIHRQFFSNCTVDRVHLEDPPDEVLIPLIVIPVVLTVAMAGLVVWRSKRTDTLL

Binder	hAMYR3 EC50 [nM] (cAMP formation, 1321N1 cells expressing hAMYR3) [1]	hCT-R EC50 [nM] (cAMP formation, 1321N1 cells expressing hCT-R) [2]
{C20 diacid-γGlu}-R[Aad]GTAT[Dap]ATERLAHFLQRSSF[Sar]A[NMeI]LSSTEVGSNT[Hyp]-NH2 (lactam 2-7; SMILES CC[C@H](C)[C@@H](C(=O)N[C@@H](CC(C)C)C(=O)N[C@@H](CO)C(=O)N[C@@H](CO)C(=O)N[C@H](C(=O)N[C@@H](CCC(=O)O)C(=O)N[C@H](C(=O)NCC(=O)N[C@@H](CO)C(=O)N[C@@H](CC(N)=O)C(=O)N[C@H](C(=O)N1C[C@H](O)C[C@H]1C(N)=O)[C@@H](C)O)C(C)C)[C@@H](C)O)N(C)C(=O)[C@H](C)NC(=O)CN(C)C(=O)[C@H](Cc1ccccc1)NC(=O)[C@H](CO)NC(=O)[C@H](CO)NC(=O)[C@H](CCCNC(=N)N)NC(=O)[C@H](CCC(N)=O)NC(=O)[C@H](CC(C)C)NC(=O)[C@H](Cc1ccccc1)NC(=O)[C@H](Cc1c[nH]cn1)NC(=O)[C@H](C)NC(=O)[C@H](CC(C)C)NC(=O)[C@H](CCCNC(=N)N)NC(=O)[C@H](CCC(=O)O)NC(=O)[C@@H](NC(=O)[C@H](C)NC(=O)[C@@H]1CNC(=O)CCC[C@H](NC(=O)[C@H](CCCNC(=N)N)NC(=O)CC[C@H](NC(=O)CCCCCCCCCCCCCCCCCCC(=O)O)C(=O)O)C(=O)NCC(=O)N[C@@H]([C@@H](C)O)C(=O)N[C@@H](C)C(=O)N[C@@H]([C@@H](C)O)C(=O)N1)[C@@H](C)O) [Compound 50]	1.5	3.3
{C20 diacid-γGlu}-RDGTAT[Dap]ATERLAHFLQRSSF[Sar]A[NMeI]LSSTEVGSNT[Hyp]-NH2 (lactam 2-7; SMILES CC[C@H](C)[C@@H](C(=O)N[C@@H](CC(C)C)C(=O)N[C@@H](CO)C(=O)N[C@@H](CO)C(=O)N[C@H](C(=O)N[C@@H](CCC(=O)O)C(=O)N[C@H](C(=O)NCC(=O)N[C@@H](CO)C(=O)N[C@@H](CC(N)=O)C(=O)N[C@H](C(=O)N1C[C@H](O)C[C@H]1C(N)=O)[C@@H](C)O)C(C)C)[C@@H](C)O)N(C)C(=O)[C@H](C)NC(=O)CN(C)C(=O)[C@H](Cc1ccccc1)NC(=O)[C@H](CO)NC(=O)[C@H](CO)NC(=O)[C@H](CCCNC(=N)N)NC(=O)[C@H](CCC(N)=O)NC(=O)[C@H](CC(C)C)NC(=O)[C@H](Cc1ccccc1)NC(=O)[C@H](Cc1c[nH]cn1)NC(=O)[C@H](C)NC(=O)[C@H](CC(C)C)NC(=O)[C@H](CCCNC(=N)N)NC(=O)[C@H](CCC(=O)O)NC(=O)[C@@H](NC(=O)[C@H](C)NC(=O)[C@@H]1CNC(=O)C[C@H](NC(=O)[C@H](CCCNC(=N)N)NC(=O)CC[C@H](NC(=O)CCCCCCCCCCCCCCCCCCC(=O)O)C(=O)O)C(=O)NCC(=O)N[C@@H]([C@@H](C)O)C(=O)N[C@@H](C)C(=O)N[C@@H]([C@@H](C)O)C(=O)N1)[C@@H](C)O) [Compound 1]	9.3	13.6
{C20 diacid-γGlu}-RDGTAT[Orn]ATERLAHFLQRSSF[Sar]A[NMeI]PSSTEVGSNT[Hyp]-NH2 (lactam 2-7; SMILES CC[C@H](C)[C@@H](C(=O)N1CCC[C@H]1C(=O)N[C@@H](CO)C(=O)N[C@@H](CO)C(=O)N[C@H](C(=O)N[C@@H](CCC(=O)O)C(=O)N[C@H](C(=O)NCC(=O)N[C@@H](CO)C(=O)N[C@@H](CC(N)=O)C(=O)N[C@H](C(=O)N1C[C@H](O)C[C@H]1C(N)=O)[C@@H](C)O)C(C)C)[C@@H](C)O)N(C)C(=O)[C@H](C)NC(=O)CN(C)C(=O)[C@H](Cc1ccccc1)NC(=O)[C@H](CO)NC(=O)[C@H](CO)NC(=O)[C@H](CCCNC(=N)N)NC(=O)[C@H](CCC(N)=O)NC(=O)[C@H](CC(C)C)NC(=O)[C@H](Cc1ccccc1)NC(=O)[C@H](Cc1c[nH]cn1)NC(=O)[C@H](C)NC(=O)[C@H](CC(C)C)NC(=O)[C@H](CCCNC(=N)N)NC(=O)[C@H](CCC(=O)O)NC(=O)[C@@H](NC(=O)[C@H](C)NC(=O)[C@@H]1CCCNC(=O)C[C@H](NC(=O)[C@H](CCCNC(=N)N)NC(=O)CC[C@H](NC(=O)CCCCCCCCCCCCCCCCCCC(=O)O)C(=O)O)C(=O)NCC(=O)N[C@@H]([C@@H](C)O)C(=O)N[C@@H](C)C(=O)N[C@@H]([C@@H](C)O)C(=O)N1)[C@@H](C)O) [Compound 5]	0.032	0.114
{C20 diacid-γGlu}-REGTAT[Dab]ATERLAHFLQRSSF[Sar]A[NMeI]LSSTEVGSNT[Hyp]-NH2 (lactam 2-7; SMILES CC[C@H](C)[C@@H](C(=O)N[C@@H](CC(C)C)C(=O)N[C@@H](CO)C(=O)N[C@@H](CO)C(=O)N[C@H](C(=O)N[C@@H](CCC(=O)O)C(=O)N[C@H](C(=O)NCC(=O)N[C@@H](CO)C(=O)N[C@@H](CC(N)=O)C(=O)N[C@H](C(=O)N1C[C@H](O)C[C@H]1C(N)=O)[C@@H](C)O)C(C)C)[C@@H](C)O)N(C)C(=O)[C@H](C)NC(=O)CN(C)C(=O)[C@H](Cc1ccccc1)NC(=O)[C@H](CO)NC(=O)[C@H](CO)NC(=O)[C@H](CCCNC(=N)N)NC(=O)[C@H](CCC(N)=O)NC(=O)[C@H](CC(C)C)NC(=O)[C@H](Cc1ccccc1)NC(=O)[C@H](Cc1c[nH]cn1)NC(=O)[C@H](C)NC(=O)[C@H](CC(C)C)NC(=O)[C@H](CCCNC(=N)N)NC(=O)[C@H](CCC(=O)O)NC(=O)[C@@H](NC(=O)[C@H](C)NC(=O)[C@@H]1CCNC(=O)CC[C@H](NC(=O)[C@H](CCCNC(=N)N)NC(=O)CC[C@H](NC(=O)CCCCCCCCCCCCCCCCCCC(=O)O)C(=O)O)C(=O)NCC(=O)N[C@@H]([C@@H](C)O)C(=O)N[C@@H](C)C(=O)N[C@@H]([C@@H](C)O)C(=O)N1)[C@@H](C)O) [Compound 51]	0.306	0.861

The next lines start with the values.

hAMYR3 EC50 [nM] (cAMP formation, 1321N1 cells expressing hAMYR3) [1]	hCT-R EC50 [nM] (cAMP formation, 1321N1 cells expressing hCT-R) [2]	Binder
13.2	18.2	{C20 diacid-γGlu}-RDGTAT[Orn]ATERLA[Aad]FLQRSSF[Sar]A[NMeI]LSSTEVGSNT[Hyp]-NH2 (SMILES CC[C@H](C)[C@@H](C(=O)N[C@@H](CC(C)C)C(=O)N[C@@H](CO)C(=O)N[C@@H](CO)C(=O)N[C@H](C(=O)N[C@@H](CCC(=O)O)C(=O)N[C@H](C(=O)NCC(=O)N[C@@H](CO)C(=O)N[C@@H](CC(N)=O)C(=O)N[C@H](C(=O)N1C[C@H](O)C[C@H]1C(N)=O)[C@@H](C)O)C(C)C)[C@@H](C)O)N(C)C(=O)[C@H](C)NC(=O)CN(C)C(=O)[C@H](Cc1ccccc1)NC(=O)[C@H](CO)NC(=O)[C@H](CO)NC(=O)[C@H](CCCNC(=N)N)NC(=O)[C@H](CCC(N)=O)NC(=O)[C@H](CC(C)C)NC(=O)[C@H](Cc1ccccc1)NC(=O)[C@H](CCCC(=O)O)NC(=O)[C@H](C)NC(=O)[C@H](CC(C)C)NC(=O)[C@H](CCCNC(=N)N)NC(=O)[C@H](CCC(=O)O)NC(=O)[C@@H](NC(=O)[C@H](C)NC(=O)[C@H](CCCN)NC(=O)[C@@H](NC(=O)[C@H](C)NC(=O)[C@@H](NC(=O)CNC(=O)[C@H](CC(=O)O)NC(=O)[C@H](CCCNC(=N)N)NC(=O)CC[C@H](NC(=O)CCCCCCCCCCCCCCCCCCC(=O)O)C(=O)O)[C@@H](C)O)[C@@H](C)O)[C@@H](C)O) [Ref. 3]
17.1	20.3	{C20 diacid-γGlu}-RDGTAT[Orn]ATERLAHFLQRSSF[Sar]A[NMeI]PSSTEVGSNT[Hyp]-NH2 (SMILES CC[C@H](C)[C@@H](C(=O)N1CCC[C@H]1C(=O)N[C@@H](CO)C(=O)N[C@@H](CO)C(=O)N[C@H](C(=O)N[C@@H](CCC(=O)O)C(=O)N[C@H](C(=O)NCC(=O)N[C@@H](CO)C(=O)N[C@@H](CC(N)=O)C(=O)N[C@H](C(=O)N1C[C@H](O)C[C@H]1C(N)=O)[C@@H](C)O)C(C)C)[C@@H](C)O)N(C)C(=O)[C@H](C)NC(=O)CN(C)C(=O)[C@H](Cc1ccccc1)NC(=O)[C@H](CO)NC(=O)[C@H](CO)NC(=O)[C@H](CCCNC(=N)N)NC(=O)[C@H](CCC(N)=O)NC(=O)[C@H](CC(C)C)NC(=O)[C@H](Cc1ccccc1)NC(=O)[C@H](Cc1c[nH]cn1)NC(=O)[C@H](C)NC(=O)[C@H](CC(C)C)NC(=O)[C@H](CCCNC(=N)N)NC(=O)[C@H](CCC(=O)O)NC(=O)[C@@H](NC(=O)[C@H](C)NC(=O)[C@H](CCCN)NC(=O)[C@@H](NC(=O)[C@H](C)NC(=O)[C@@H](NC(=O)CNC(=O)[C@H](CC(=O)O)NC(=O)[C@H](CCCNC(=N)N)NC(=O)CC[C@H](NC(=O)CCCCCCCCCCCCCCCCCCC(=O)O)C(=O)O)[C@@H](C)O)[C@@H](C)O)[C@@H](C)O) [Ref. 1]
0.003	0.019	{C20 diacid-γGlu}-RCGTATCATERLAHFLQRSSF[Sar]A[NMeI]LSSTEVGSNT[Hyp]-NH2 (disulfide 2-7; SMILES CC[C@H](C)[C@@H](C(=O)N[C@@H](CC(C)C)C(=O)N[C@@H](CO)C(=O)N[C@@H](CO)C(=O)N[C@H](C(=O)N[C@@H](CCC(=O)O)C(=O)N[C@H](C(=O)NCC(=O)N[C@@H](CO)C(=O)N[C@@H](CC(N)=O)C(=O)N[C@H](C(=O)N1C[C@H](O)C[C@H]1C(N)=O)[C@@H](C)O)C(C)C)[C@@H](C)O)N(C)C(=O)[C@H](C)NC(=O)CN(C)C(=O)[C@H](Cc1ccccc1)NC(=O)[C@H](CO)NC(=O)[C@H](CO)NC(=O)[C@H](CCCNC(=N)N)NC(=O)[C@H](CCC(N)=O)NC(=O)[C@H](CC(C)C)NC(=O)[C@H](Cc1ccccc1)NC(=O)[C@H](Cc1c[nH]cn1)NC(=O)[C@H](C)NC(=O)[C@H](CC(C)C)NC(=O)[C@H](CCCNC(=N)N)NC(=O)[C@H](CCC(=O)O)NC(=O)[C@@H](NC(=O)[C@H](C)NC(=O)[C@@H]1CSSC[C@H](NC(=O)[C@H](CCCNC(=N)N)NC(=O)CC[C@H](NC(=O)CCCCCCCCCCCCCCCCCCC(=O)O)C(=O)O)C(=O)NCC(=O)N[C@@H]([C@@H](C)O)C(=O)N[C@@H](C)C(=O)N[C@@H]([C@@H](C)O)C(=O)N1)[C@@H](C)O) [Ref. 2]
